Experiment: yeast display, Sf9 membrane polyspecificity reagent, FACS + sequencing; frameworks hold sequencing errors
How it was run: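 Sorting gates, low and high (top ~1%), were placed on anti-HA fluorescence to track expression and on streptavidin fluorescence to track reagent binding. A clone's polyreactivity label is taken from the gate it came out of. The reagent was 10% biotinylated, detergent-solubilized Sf9 membrane, applied for 1 hour at 4 °C to galactose-induced yeast display cells.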

Sequence	polyreactivity (PSR sort gate)
QFQPVESGGGLVQAGGSLRLSCAASGFTFYRYAMGWYRPAHGKERELVAAITFSGSSTYYADSVKGRFTISRDNAKNTVYLQMNSLKEEDTAVYYCAAGGSFWYFSPRYGYWGQGTQVTVSS	high polyreactivity
QGHLVESGGGLVHAGGSLRLSCAASGRIFDVNAMGWYRQAPWKERELVAAISSGGNTKYADSVKGRFTISRDNAKNTVYLQMNSLKPEDTAVYYCIADGKAGGDYDYWGQGTQVTVSS	low polyreactivity
QGQHVDSGGVLVQAGGSLRLSCAASGITVYLYAMGWYRPAPGKEREMVATISRSGGSTYADSVKGRFTISRDNAKNTVYLQMYSLKPEDSAVYYCNADVLSTGYIAYDYWGQGTQVTVSS	low polyreactivity
QGQLEESGGGLVQAGGSLRLSCAASGFIFGGNDMGWYRQAPGKERELVAAISKSGGRTYYADSVKGRFTISRDNAKNTVYLQMNSLKPEDTAVYYCAAVPGRTAEDYGEDYWGQGTQVTVSS	high polyreactivity
QGQLEESGGGLVQAGGSLRLSCAAYGRIFYEYAMGLYRQAPGKERELVAISTAGCNTYYADSVKGRFTISRDNGKNTDYLQMNILKPEDTAVYYCAARLQYYPYYYWGQGTQVTVSS	high polyreactivity
QGQLGESGGGLVQAGGSLRLSCAASGRIFNCYGMGWYRQAPGKERELVATISKSSDITYYADSVKGRFTISRDIAKNNVYLQMNSLRPEDTAVYYCAAKVRQWRQGSYSSQYDYWGQGTQVTVSS	high polyreactivity
QGQLGESGGGLVQAGGSLRLSCAASGSIFPEYDMGWYRQAPGNERELDAAISWSGGSTYYADSVKGRFTISRANAKNTVSLQRNSLKPVDTAVYYCNRVPSWRIDYDYWGQGTQVSVSS	low polyreactivity
QGQLVESGAGLVQAGGSLRLSCAASGITLHGYVMGWYRQAPGKETELVAAITSSGGRTYYADSVKGRFTISRDNAKNTVYLQMNRLKPVDTAVYYCAARIYYYAFSGYYWGQGTQVTVSS	high polyreactivity
QGQLVESGGGLGQAGGTLRLSCAASGFTFSFYAMGWYRQAPGKERELVAAISWSGGSTYYADSVKGRFTISRDNAKNTVYLQMNSLKPEDTAVYYCAAKLLYVGRYGYWGHGTQVTVSS	high polyreactivity
QGQLVESGGGLLQAGGSLSLSCAATGFTFTENAMGWYRQEPGKEREFVAYISSSGDSTYYSDSVKGRFTISRDNAKNTVYLQMNSLKPEDTAVYYCYRDLVYDYYYVPQPSRFDYWGQGTQVTLSS	high polyreactivity
QGQLVESGGGLVQAGGSLLLICAASGGTFLTYAMGWYRQAPGKERELVAAITSGGSTKYADSVKGRFTISRDNAKNTVYLQMNSLKPEDTAVYYCAADSVRDYVLWWAYSRSDYWGQGTQVTVSS	low polyreactivity
QGQLVESGGGLVQAGGSLRLKCAASVFTFQFYDMGWYRQAPGKEMEFVATITWRAGSTYYADSVKGRFTISRDNAKNTVYLQMNSLKPEDTAVYYCIADYYRHSLDYDYVGYDYWGQGTQVTVSS	low polyreactivity
QGQLVESGGGLVQAGGSLRLSCAASGFTFAPNAMAWYRQAPGKERELVAAISSASSTYYADSLKGRFTISRDNAKNTVYLQMNSLKPEDTAVYYCAAREGWGFYYWGQGTQVTVSS	high polyreactivity
QGQLVESGGGLVQAGGSLRLSCAASGFTFDYYAMGWYRQATGKEREFVAAISSRGDDTYYADSVKGRFTISRDNAKNTVYLQMNSLKPEDTAVYYCAALDPWKPEYDYWGQGTQVTLSS	high polyreactivity
QGQLVESGGGLVQAGGSLRLSCAASGFTFNYYAMGWSRQAPGKERELVAAISWRGGSTSYADSVKGRFTISRDNAKNTVYLQMNSLKPEDTAVYYCNAGYSGIYYFAGDYWGQGTQVTVSS	high polyreactivity
QGQLVESGGGLVQAGGSLRLSCAASGFTFQYYAMGWYRQAPGKDRELVAALSSSGGRTFYADSVKGRFTISRDNAKNTVYLQMNSLKAEDTAVYYCAAVWYGFLYYYWGQGTQVTVSS	high polyreactivity

Sequence	polyreactivity (PSR sort gate)
QGQLVESGGGLVQAGGSLRLSCAASGFTFSYNVMGWYRQAPGKERELVPAINWSGGRTYYADSVKGRFTISRDNAKNTVYLQMNSLKPEDTAVYYCAARVYRGTARLIYDYWGQGTQVTVSS	high polyreactivity
QGQLVESGGGLVQAGGSLRLSCAASGFTFYYNAMGWYRQAPGQERELVAAISTRGGNTYYADSVKGRFTISRDNAKNTVYLQMNSLKPEDTAVYYCARKIRREGRYDYWGQGTQVTVSS	high polyreactivity
QGQLVESGGGLVQAGGSLRLSCAASGGTFEYNTMGWYRQAPGKERELVAAIRSSTVRTYYADSVKGRFTISRDNAKNTVYLQMNSLKPEDTAVYYCAATRYRKYWGQGTQVTVTS	high polyreactivity
QGQLVESGGGLVQAGGSLRLSCAASGIIFTANVMGWYRQAPGKERELVAAITRGGNTYYADSVKGRFTISRDNAKNTVYLQMNSLKPEDTAVYYCAAADYTTPVPYGRKGFDYWGQGTQVTVSS	low polyreactivity
QGQLVESGGGLVQAGGSLRLSCAASGLIFYPNGMGWYREAPGKERELVAAITYSDGSTYYADSVKGRFTISRDNAKNTVYLQMNSLKAEDTAVYYCNRVTRWTYNYWGQGTQVTVSS	high polyreactivity
QGQLVESGGGLVQAGGSLRLSCAASGLTFKYYTMGWYRQAPGKEMELVAAINWSGASTYADSVKGRFTISRDNAKNTVYLQMNSLKPEDTAVYYCAADSPSWAPVREYDFWGQGTQVTVSS	low polyreactivity
QGQLVESGGGLVQAGGSLRLSCAASGNTFWYYAMGWYRQAPGKEREVVATISSSGGSTSYAHSVKGRFTISRDNAKNTVYLQMNSLKPVDTAVYYCAKPIRYFAAYPLTKGYYYWGQCTQVTVSS	high polyreactivity
QGQLVESGGGLVQAGGSLRLSCAASGRIVGPNTMGWSRQAPGKERELVAAISSGGGTYYADSVKGRFTISRDNAKNTVYLQMNSLKPEDTAVYYCAADYTTLKLYYWFDYWGQGTHVTVSS	low polyreactivity
QGQLVESGGGLVQAGGSLRLSCAASGRTFSVNDMGWYRQAPGKERELVAAMSFSGGRTYYADSVKGRFTISRDNAKNTVYLQMNSLKPEDTAVYYCAADIRGYDYWGQGTQVTVSS	high polyreactivity
QGQLVESGGGLVQAGGSLRLSCAASGSIFPDYAMGWYRQAPGKERELVAAITWRDDSTYYADSVKGRFTISRDNAKNTVYLQMNSLKPEDTAVYYCIASALDPLYAKDDYWGQGTQVTVSS	low polyreactivity
QGQLVESGGGLVQAGGSLRLSCAASGSIFPYNDMGWYRQAPRKERELFAAINSDGSTDYADSVKGRFTISRDNAKNTVYLLMKSLKPEDTAVYDCNGDYVATFLSPPTSVSYGYWGQVTQVTVSS	low polyreactivity
QGQLVESGGGLVQAGGSLRLSCAASGSIFYRNAMGWYRQAPGKERELVAAISYSGGSTYYADSVKGRFTISRDNAKNTVYLQMNSLKPEDTAVYYCAKDYPTPISDYSRYYGYGYWGQGTQVTVSS	low polyreactivity
QGQLVESGGGLVQAGGSLRLSCAASGSTFPTNSMGWYRPAPGNDRELVAAITGGASTYYADSVKGRFTISRDNAKNTVYLQMNSLKPEDTAVYYCAADDSWFYYGYGYWGQGTQVTVSS	low polyreactivity
QGQLVESGGGLVQAGGSLRLSCAASGTFSPYAMGWYRPAPGKERELVAVITSNTGRTYADSVKGRFTISRDNAKNTVYLQMNSLKPEDTAVYYCASRSTYRHWYRTGSRFDYWGQGTQVTVSS	low polyreactivity
QGQLVESGGGLVQAGGSLRLSCAASGYIFNPNAMGWYRQGPGKERDLFAGITWRGDRTYYADSVKGRFTISRDNAKNTVYLQMNCLKPEDTAVYYCNGAGADRWSYSSNIRRYYYWGHGTQVTVSS	high polyreactivity

From the nanobody polyreactivity screen of Harvey et al. (2022)
